Data taken from the Human Domainome abundance scans (Beltran et al. 2025).
± gives the uncertainty stated by the source.

B1: SAM and SH3 domain-containing protein 1, residues 630 to 700; numbered along this chain, O94885 (parent)
chain: GRPPQPKSVEDLLDRINLKEHMPTFLFNGYEDLDTFKLLEEEDLDELNIRDPEHRAVLLTAVELLQEYDSN

Variants of: B1
Assay: abundance fitness (aPCA) (normalised: wild type 0, dead -1); higher = more abundant; growth selection in yeast, the domain comes from the species named
Settings: Homo sapiens

Point of comparison: GRPPQPKSVEDLLDRITLKEHMPTFLFNGYEDLDTFKLLEEEDLDELNIRDPEHRAVLLTAVELLQEYDSN, abundance fitness -0.842 ± 0.064. Against it:
- GRPPQPKSVEDLLDRINAKEHMPTFLFNGYEDLDTFKLLEEEDLDELNIRDPEHRAVLLTAVELLQEYDSN — within error, -0.804 ± 0.064
- GRPPQPKSVEDLLDRINCKEHMPTFLFNGYEDLDTFKLLEEEDLDELNIRDPEHRAVLLTAVELLQEYDSN — higher, -0.523 ± 0.066
- GRPPQPKSVEDLLDRINHKEHMPTFLFNGYEDLDTFKLLEEEDLDELNIRDPEHRAVLLTAVELLQEYDSN — within error, -0.714 ± 0.076
- GRPPQPKSVEDLLDRINEKEHMPTFLFNGYEDLDTFKLLEEEDLDELNIRDPEHRAVLLTAVELLQEYDSN — within error, -0.797 ± 0.092
- GRPPQPKSVEDLLDRINGKEHMPTFLFNGYEDLDTFKLLEEEDLDELNIRDPEHRAVLLTAVELLQEYDSN — within error, -0.89 ± 0.064
- GRPPQPKSVEDLLDKINLKEHMPTFLFNGYEDLDTFKLLEEEDLDELNIRDPEHRAVLLTAVELLQEYDSN — higher, -0.036 ± 0.049
- GRPPQPKSVEDLLDGINLKEHMPTFLFNGYEDLDTFKLLEEEDLDELNIRDPEHRAVLLTAVELLQEYDSN — higher, -0.342 ± 0.049
- GRPPQPKSVEDLLDWINLKEHMPTFLFNGYEDLDTFKLLEEEDLDELNIRDPEHRAVLLTAVELLQEYDSN — higher, -0.411 ± 0.071
- GRPPQPKSVEDLLDQINLKEHMPTFLFNGYEDLDTFKLLEEEDLDELNIRDPEHRAVLLTAVELLQEYDSN — higher, -0.017 ± 0.045
- GRPPQPKSVEDLLDSINLKEHMPTFLFNGYEDLDTFKLLEEEDLDELNIRDPEHRAVLLTAVELLQEYDSN — higher, 0.116 ± 0.033
- GRPPQPKSVEDLLDPINLKEHMPTFLFNGYEDLDTFKLLEEEDLDELNIRDPEHRAVLLTAVELLQEYDSN — within error, -0.828 ± 0.072
- GRPPQPKSVEDLLDIINLKEHMPTFLFNGYEDLDTFKLLEEEDLDELNIRDPEHRAVLLTAVELLQEYDSN — higher, -0.23 ± 0.051
- GRPPQPKSVEDLLDYINLKEHMPTFLFNGYEDLDTFKLLEEEDLDELNIRDPEHRAVLLTAVELLQEYDSN — higher, -0.3 ± 0.053
- GRPPQPKSVEDLLDEINLKEHMPTFLFNGYEDLDTFKLLEEEDLDELNIRDPEHRAVLLTAVELLQEYDSN — higher, -0.07 ± 0.055
- GRPPQPKSVEDLLDTINLKEHMPTFLFNGYEDLDTFKLLEEEDLDELNIRDPEHRAVLLTAVELLQEYDSN — higher, -0.164 ± 0.04
- GRPPQPKSVEDLLDNINLKEHMPTFLFNGYEDLDTFKLLEEEDLDELNIRDPEHRAVLLTAVELLQEYDSN — higher, -0.075 ± 0.046
- GRPPQPKSVEDLLDLINLKEHMPTFLFNGYEDLDTFKLLEEEDLDELNIRDPEHRAVLLTAVELLQEYDSN — higher, -0.223 ± 0.037
- GRPPQPKSVEDLLDDINLKEHMPTFLFNGYEDLDTFKLLEEEDLDELNIRDPEHRAVLLTAVELLQEYDSN — higher, -0.454 ± 0.065
- GRPPQPKSVEDLLDMINLKEHMPTFLFNGYEDLDTFKLLEEEDLDELNIRDPEHRAVLLTAVELLQEYDSN — higher, 0.142 ± 0.042
- GRPPQPKSVEDLLDVINLKEHMPTFLFNGYEDLDTFKLLEEEDLDELNIRDPEHRAVLLTAVELLQEYDSN — higher, -0.381 ± 0.046
- GRPPQPKSVEDLLDAINLKEHMPTFLFNGYEDLDTFKLLEEEDLDELNIRDPEHRAVLLTAVELLQEYDSN — higher, 0.055 ± 0.038
- GRPPQPKSVEDLLDCINLKEHMPTFLFNGYEDLDTFKLLEEEDLDELNIRDPEHRAVLLTAVELLQEYDSN — higher, -0.374 ± 0.059
- GRPPQPKSVEDLLDHINLKEHMPTFLFNGYEDLDTFKLLEEEDLDELNIRDPEHRAVLLTAVELLQEYDSN — higher, -0.342 ± 0.054
- GRPPQPKSVEDLLDFINLKEHMPTFLFNGYEDLDTFKLLEEEDLDELNIRDPEHRAVLLTAVELLQEYDSN — higher, -0.286 ± 0.053
- GRPPQPKSVEDLLDRVNLKEHMPTFLFNGYEDLDTFKLLEEEDLDELNIRDPEHRAVLLTAVELLQEYDSN — higher, -0.199 ± 0.052
- GRPPQPKSVEDLLDRWNLKEHMPTFLFNGYEDLDTFKLLEEEDLDELNIRDPEHRAVLLTAVELLQEYDSN — higher, -0.611 ± 0.088
- GRPPQPKSVEDLLDRHNLKEHMPTFLFNGYEDLDTFKLLEEEDLDELNIRDPEHRAVLLTAVELLQEYDSN — higher, -0.278 ± 0.069
- GRPPQPKSVEDLLDRGNLKEHMPTFLFNGYEDLDTFKLLEEEDLDELNIRDPEHRAVLLTAVELLQEYDSN — higher, -0.674 ± 0.085
- GRPPQPKSVEDLLDRKNLKEHMPTFLFNGYEDLDTFKLLEEEDLDELNIRDPEHRAVLLTAVELLQEYDSN — within error, -0.735 ± 0.097
- GRPPQPKSVEDLLDRPNLKEHMPTFLFNGYEDLDTFKLLEEEDLDELNIRDPEHRAVLLTAVELLQEYDSN — within error, -0.994 ± 0.099
- GRPPQPKSVEDLLDRMNLKEHMPTFLFNGYEDLDTFKLLEEEDLDELNIRDPEHRAVLLTAVELLQEYDSN — higher, -0.325 ± 0.062
- GRPPQPKSVEDLLDRLNLKEHMPTFLFNGYEDLDTFKLLEEEDLDELNIRDPEHRAVLLTAVELLQEYDSN — higher, 0.128 ± 0.038
- GRPPQPKSVEDLLDRDNLKEHMPTFLFNGYEDLDTFKLLEEEDLDELNIRDPEHRAVLLTAVELLQEYDSN — within error, -0.703 ± 0.15
- GRPPQPKSVEDLLDRFNLKEHMPTFLFNGYEDLDTFKLLEEEDLDELNIRDPEHRAVLLTAVELLQEYDSN — higher, -0.266 ± 0.064
- GRPPQPKSVEDLLDRTNLKEHMPTFLFNGYEDLDTFKLLEEEDLDELNIRDPEHRAVLLTAVELLQEYDSN — higher, -0.589 ± 0.076
- GRPPQPKSVEDLLDRENLKEHMPTFLFNGYEDLDTFKLLEEEDLDELNIRDPEHRAVLLTAVELLQEYDSN — higher, -0.595 ± 0.1
- GRPPQPKSVEDLLDRANLKEHMPTFLFNGYEDLDTFKLLEEEDLDELNIRDPEHRAVLLTAVELLQEYDSN — higher, -0.424 ± 0.062
- GRPPQPKSVEDLLDRCNLKEHMPTFLFNGYEDLDTFKLLEEEDLDELNIRDPEHRAVLLTAVELLQEYDSN — higher, -0.067 ± 0.063
- GRPPQPKSVEDLLDRYNLKEHMPTFLFNGYEDLDTFKLLEEEDLDELNIRDPEHRAVLLTAVELLQEYDSN — higher, -0.009 ± 0.058
- GRPPQPKSVEDLLDRNNLKEHMPTFLFNGYEDLDTFKLLEEEDLDELNIRDPEHRAVLLTAVELLQEYDSN — higher, -0.326 ± 0.067
- GRPPQPKSVEDLLDRQNLKEHMPTFLFNGYEDLDTFKLLEEEDLDELNIRDPEHRAVLLTAVELLQEYDSN — higher, -0.682 ± 0.078
- GRPPQPKSVEDLTDRINLKEHMPTFLFNGYEDLDTFKLLEEEDLDELNIRDPEHRAVLLTAVELLQEYDSN — within error, -0.861 ± 0.077
- GRPPQPKSVEDLVDRINLKEHMPTFLFNGYEDLDTFKLLEEEDLDELNIRDPEHRAVLLTAVELLQEYDSN — lower, -1 ± 0.085
- GRPPQPKSVEDLWDRINLKEHMPTFLFNGYEDLDTFKLLEEEDLDELNIRDPEHRAVLLTAVELLQEYDSN — within error, -0.99 ± 0.095
- GRPPQPKSVEDLYDRINLKEHMPTFLFNGYEDLDTFKLLEEEDLDELNIRDPEHRAVLLTAVELLQEYDSN — within error, -0.905 ± 0.096
- GRPPQPKSVEDLLSRINLKEHMPTFLFNGYEDLDTFKLLEEEDLDELNIRDPEHRAVLLTAVELLQEYDSN — higher, -0.168 ± 0.039
- GRPPQPKSVEDLLMRINLKEHMPTFLFNGYEDLDTFKLLEEEDLDELNIRDPEHRAVLLTAVELLQEYDSN — higher, -0.34 ± 0.066
- GRPPQPKSVEDLLPRINLKEHMPTFLFNGYEDLDTFKLLEEEDLDELNIRDPEHRAVLLTAVELLQEYDSN — within error, -0.834 ± 0.086
- GRPPQPKSVEDLLGRINLKEHMPTFLFNGYEDLDTFKLLEEEDLDELNIRDPEHRAVLLTAVELLQEYDSN — higher, -0.218 ± 0.055
- GRPPQPKSVEDLLTRINLKEHMPTFLFNGYEDLDTFKLLEEEDLDELNIRDPEHRAVLLTAVELLQEYDSN — higher, -0.086 ± 0.045
- GRPPQPKSVEDLLKRINLKEHMPTFLFNGYEDLDTFKLLEEEDLDELNIRDPEHRAVLLTAVELLQEYDSN — higher, -0.273 ± 0.065
- GRPPQPKSVEDLLVRINLKEHMPTFLFNGYEDLDTFKLLEEEDLDELNIRDPEHRAVLLTAVELLQEYDSN — higher, -0.287 ± 0.047
- GRPPQPKSVEDLLQRINLKEHMPTFLFNGYEDLDTFKLLEEEDLDELNIRDPEHRAVLLTAVELLQEYDSN — higher, -0.269 ± 0.07
- GRPPQPKSVEDLLRRINLKEHMPTFLFNGYEDLDTFKLLEEEDLDELNIRDPEHRAVLLTAVELLQEYDSN — higher, -0.434 ± 0.055
- GRPPQPKSVEDLLYRINLKEHMPTFLFNGYEDLDTFKLLEEEDLDELNIRDPEHRAVLLTAVELLQEYDSN — higher, -0.602 ± 0.069
- GRPPQPKSVEDLLCRINLKEHMPTFLFNGYEDLDTFKLLEEEDLDELNIRDPEHRAVLLTAVELLQEYDSN — higher, -0.215 ± 0.054
- GRPPQPKSVEDLLNRINLKEHMPTFLFNGYEDLDTFKLLEEEDLDELNIRDPEHRAVLLTAVELLQEYDSN — higher, -0.131 ± 0.048
- GRPPQPKSVEDLLIRINLKEHMPTFLFNGYEDLDTFKLLEEEDLDELNIRDPEHRAVLLTAVELLQEYDSN — higher, -0.293 ± 0.054
- GRPPQPKSVEDLLFRINLKEHMPTFLFNGYEDLDTFKLLEEEDLDELNIRDPEHRAVLLTAVELLQEYDSN — within error, -0.734 ± 0.068
- GRPPQPKSVEDLLDRIILKEHMPTFLFNGYEDLDTFKLLEEEDLDELNIRDPEHRAVLLTAVELLQEYDSN — within error, -0.851 ± 0.086
- GRPPQPKSVEDLLDRIPLKEHMPTFLFNGYEDLDTFKLLEEEDLDELNIRDPEHRAVLLTAVELLQEYDSN — lower, -1.08 ± 0.094
- GRPPQPKSVEDLLDRILLKEHMPTFLFNGYEDLDTFKLLEEEDLDELNIRDPEHRAVLLTAVELLQEYDSN — within error, -0.891 ± 0.059
- GRPPQPKSVEDLLDRIVLKEHMPTFLFNGYEDLDTFKLLEEEDLDELNIRDPEHRAVLLTAVELLQEYDSN — within error, -0.817 ± 0.062
- GRPPQPKSVEDLLDRIKLKEHMPTFLFNGYEDLDTFKLLEEEDLDELNIRDPEHRAVLLTAVELLQEYDSN — higher, -0.341 ± 0.051
- GRPPQPKSVEDLLDRIALKEHMPTFLFNGYEDLDTFKLLEEEDLDELNIRDPEHRAVLLTAVELLQEYDSN — higher, -0.349 ± 0.046
- GRPPQPKSVEDLLDRIWLKEHMPTFLFNGYEDLDTFKLLEEEDLDELNIRDPEHRAVLLTAVELLQEYDSN — within error, -0.956 ± 0.096
- GRPPQPKSVEDLLDRIRLKEHMPTFLFNGYEDLDTFKLLEEEDLDELNIRDPEHRAVLLTAVELLQEYDSN — higher, -0.645 ± 0.051
- GRPPQPKSVEDLLDRIHLKEHMPTFLFNGYEDLDTFKLLEEEDLDELNIRDPEHRAVLLTAVELLQEYDSN — higher, -0.2 ± 0.049
- GRPPQPKSVEDLLDRICLKEHMPTFLFNGYEDLDTFKLLEEEDLDELNIRDPEHRAVLLTAVELLQEYDSN — higher, -0.486 ± 0.068
- GRPPQPKSVEDLLDRIFLKEHMPTFLFNGYEDLDTFKLLEEEDLDELNIRDPEHRAVLLTAVELLQEYDSN — within error, -0.726 ± 0.085
- GRPPQPKSVEDLLDRIQLKEHMPTFLFNGYEDLDTFKLLEEEDLDELNIRDPEHRAVLLTAVELLQEYDSN — higher, -0.289 ± 0.053
- GRPPQPKSVEDLLDRIYLKEHMPTFLFNGYEDLDTFKLLEEEDLDELNIRDPEHRAVLLTAVELLQEYDSN — within error, -0.904 ± 0.086
- GRPPQPKSVEDLLDRIDLKEHMPTFLFNGYEDLDTFKLLEEEDLDELNIRDPEHRAVLLTAVELLQEYDSN — higher, -0.234 ± 0.057
- GRPPQPKSVEDLLDRIELKEHMPTFLFNGYEDLDTFKLLEEEDLDELNIRDPEHRAVLLTAVELLQEYDSN — higher, -0.333 ± 0.063
- GRPPQPKSVEDLLDRISLKEHMPTFLFNGYEDLDTFKLLEEEDLDELNIRDPEHRAVLLTAVELLQEYDSN — higher, -0.279 ± 0.04
